Results: US20110229941

Biological target: T1, crotonyl-S-SfaO (N-terminal 6x His-tagged free acyl carrier protein SfaO carrying a crotonyl thioester)
T1 chain: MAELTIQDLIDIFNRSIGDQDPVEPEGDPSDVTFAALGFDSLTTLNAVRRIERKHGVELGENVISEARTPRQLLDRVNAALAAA

B1: N-terminal 6x His-tagged SfaR (crotonyl-CoA reductase) (protein)
chain: VNEILSAVLSAEATAADFAALPLPESYRAITVHKDETEMFTGVGPADKDPRKSLHLDEVPVPELGPGEALVAVMASSVNYNSVWSSIFEPLPTFAFLERYGRRGELAKRHDLPYHVIGSDLAGVVLRTGPGVQAWKPGDEVVAHCLSVELESSDGHDDTMMDPEQRIWGFETNFGGLAELALVKSNQLMPKPRHLTWEEAAAPGLVNSTAYRQLVSRNGAQMKQGDNVLIWGASGGLGSYATQLALAGGANPVCVVSTPQKAAICRSMGAEAVIDRDAEDYRFWRDGNTQDPREWKRFGKRIRELTGGEDVDIVFEHPGRETFGASVFVARKGGTIVTCASTSGYEHQYDNRYLWMSLKRIIGSHFANYREAWEANRLVAKGRIHPTLSKVYPLEETGQAAFDVYGNVHHGKVGVLGLAPTEGLGVRDEEMRARHVGAINRFRPSAEPQTEPV
activity of SfaR (reduction / reductive carboxylation) with crotonyl-S-SfaO as the substrate: failed to detect any activity of SfaR
